Reference: publication PMC6293271, “Bactericidal/Permeability-Increasing Protein Is an Enhancer of Bacterial Lipoprotein Recognition” (Frontiers in Immunology, 2018)

Experiments:
[1] = system: HEK293T cells expressing TLR2 and CD14; experiment: Stimulation of HEK293T cells transfected with human TLR2 and CD14, IL-8 ELISA; format: cell-based; conditions: HEK293T expressing TLR2 and CD14, (R)-Pam3CSK4 ± BPI, 24 h
Method: HEK293T cells were transfected using the calcium phosphate mediated method according to a published protocol ([45]). Transfections were performed using plasmid vectors for human TLR2 and human CD14 (both a kind gift of Carsten Kirschning, University of Duisburg-Essen, Germany) at concentrations of 0.4 and 0.05 μg/ml, respectively. A GFP encoding plasmid (0.4 μg/ml) was used as control. For stimulation, transfected HEK293T cells were cultured at 2 × 10^5 cells/ml in 96-well plates and stimulated with (R)-Pam3CSK4 ± BPI. After 24 h, supernatants were collected and analyzed for secretion of IL-8 by ELISA (DuoSet® ELISA human CXCL8/IL-8, R&D, Minneapolis, MN, USA).

[2] = system: PBMCs; experiment: Stimulation of human PBMCs, cytokine ELISA of supernatants; format: cell-based; conditions: for TNFα secretion: 18 h
Method: After informed consent, blood was drawn from healthy male volunteers using heparinized blood collection tubes (Li-Heparin-Gel-Monovette, Sarstedt, Nümbrecht, Germany) and diluted in RPMI 1640 (Biochrom, Berlin, Germany) at a ratio of 1:1.5. The blood was centrifuged in leucosep tubes containing Ficoll® Paque plus (Oxford Immunotec, Abingdon, Great Britian) at 1,000 × g for 10 min. The interphase containing the leukocytes was collected and subsequently washed twice with RPMI 1640. The pellet was resuspended in AIM V® Medium (Thermo Fisher Scientific, Waltham, MA, USA), counted and cultivated in 96-well plates for 4 h (1 × 10^5/100 μl). Then cells were stimulated with the indicated compounds in the presence or absence of BPI. The supernatants were collected after 18 h for determination of cytokine concentration by ELISA according to the manufacturer's instructions (OptEIA^TM Human TNFα ELISA Set and OptEIA^TM Human IL6 ELISA, BD Biosciences, Heidelberg, Germany; DuoSet® ELISA human CXCL8/IL-8, R&D, Minneapolis, MN, USA).

B1: rBPI: recombinant human BPI (aa 32-487) with C-terminal FLAG Tag expressed in HEK293T cells (protein)
chain: VNPGVVVRISQKGLDYASQQGTAALQKELKRIKIPDYSDSFKIKHLGKGHYSFYSMDIREFQLPSSQISMVPNVGLKFSISNANIKISGKWKAQKRFLKMSGNFDLSIEGMSISADLKLGSNPTSGKPTITCSSCSSHINSVHVHISKSKVGWLIQLFHKKIESALRNKMNSQVCEKVTNSVSSELQPYFQTLPVMTKIDSVAGINYGLVAPPATTAETLDVQMKGEFYSENHHNPPPFAPPVMEFPAAHDRMVYLGLSDYFFNTAGLVYQEAGVLKMTLRDDMIPKESKFRLTTKFFGTFLPEVAKKFPNMKIQIHVSASTPPHLSVQPTGLTFYPAVDVQAFAVLPNSSLASLFLIGMHTTGSMEVSAESNRLVGELKLDRLLLELKHSNIGPFPVELLQDIMNYIVPILVLPRVNEKLQKGFPLPTPARVQLYNVVLQPHQNFLLFGADVVYK
modifications: labelled with NT647 (NHS labelling kit) in the MST experiments only; left off: HA signal peptide, N-terminal, state not stated | FLAG, C-terminal, state not stated
notes: recombinant human BPI (aa 32-487) with C-terminal FLAG Tag expressed in HEK293T cells
B1 was tested. Which “enhancement of immune stimulation of bLPs (IL-8)” value [1] did it give?
The value was “not sufficient to enhance”.

And the TNFα secretion ([2]; PBMCs stimulated with (R)-FSL-1, increasing rBPI concentration)?
Its TNFα secretion is “gradually enhanced”.

And the TNFα secretion ([2]; PBMCs stimulated with (R)-Pam3CSK4, increasing rBPI concentration)?
The TNFα secretion was “gradually enhanced”.

What about the “TNFα, IL-6, and IL-8 secretion” value ([2]; PBMCs stimulated with lysate of S. pneumoniae D39Δcps, seven donors, BPI 500 nM) of the same molecule?
Its value is “remarkable increase”.

And the “TNFα, IL-6, and IL-8 secretion” value ([2]; PBMCs stimulated with lysates of S. aureus 113, BPI 500 nM)?
The value was “also increased”.

What about the “secretion of TNFα” value ([2]; PBMCs, BPI incubated with LTA SPΔlgt compared to LTA SPΔlgt alone) of the same molecule?
The value was “increased secretion of TNFα”.
